Source: the DeepSol protein solubility set

Assay: soluble on expression in E. coli; label from the status in PepcDB or PDB records

Sequence	soluble on expression in E. coli
MSDVATLESFRLADSFLPVGTYTVSYGLEQFIQDDRVEDATDLEGLLSTYLRRQIGPAELVALRAAHAAATDGDIEAICHADQRLSAVTLAAEFRESAQQSGDRLLSLQTELRDEALLNRYAERVDADDAPGNYAVVLGVATGLADVAVREACLLCCHGFVTGLLGAAQRLLSLGHTDAQRILNDLQPVMTAAVDDSADRGIDEMTPFAPLVDVLAAEHERAERRLFASLEHHHHHH	not soluble
MSLKIGIVKHLNARPLTWGFEKNKKHEIVPENPAILKDYLLNGTIDLGLISSIECIRNDHVLNTYYGTGVCAREKVRSILFFKNKRENFPPKQILTDNGSKTSVALVRVLIYEESGLIPYVEPTDSKLIQEKISNGIGSHMLFGDNALLAKWNPEFYEVKDLAQWWNELTGLGFIFALWASKKSLKLDDLIFIQSLEYGVSHIEEIISHESRLSSTLVREYLTKELHYKITEEDQKGFLLFREKCSQLNLLEGHHHHHH	soluble
MPPMAKNAAVTDVVHLDSDSDSDNGVVGGRESASTIAGAATMAPRETLECRSFWKAGDYFVIPNVVTPTAPAIAELLDNAVDEIQNGATFVKIDKINIVKDNSPALVFQDDGGGMDPAGLRKCMSLGYSSKKSNTTIGQYGNGFKTSTMRLGADAIVFSRSTRGGTSTQSVGILSYTFLRKTGQDDVTVPMIRYVMQIDIDISKERPQPIIYGSPEDWAANLEILLKWSPFSTEDELLQQSVLLIFLFPSSTHQFEDVGTHGTKVIIYNLWLNDEGIYELSFDDDEEVTHTFPQLIYTRRDILPEDIRLRDESVNDGKRLHHKILELRSHISYHLRYSLRAYASMLYLKKFKNFKIIIRGIPVEQFNIADGFRFPEIIKYKPHTATTEQASTEIKIGFVKEAPKLAICGFNVYHKNRLIRDTGNNLDGKSAGEIRQENLQLFMRYIYKKRKIRISISYLCGDLNQILFFNRCEEYIKKENETEQTVKSLEKELEEFKSKCAHLALLVDAKKKEMQQA	soluble
MSLNIAMTGATGYIGKHLSNYLTEKGGHRIIPLGRAMFREGMSGLLVQTLTHCDVIINLAGAPINQRWTPEHKQELFNSRITVTHRIIRALNAVKTKPKLMISASAVGYYPSLVESDEYTQTRGDGFLSDLCYAWEKEAKRCPQPTRLVITRFGVVLSPDGGAMQQMLRPLRATKVAAVIGPGTQPFPWIDIRDLCCAMAFFIENEELRGVFNLVAPQAVSQSTFTRAMGKAYHAWTTEGHHHHHH	not soluble
MGSDKIHHHHHHMLKIYVVDNGGQWTHREWRVLRELGVDTKIVPNDIDSSELDGLDGLVLSGGAPNIDEELDKLGSVGKYIDDHNYPILGICVGAQFIALHFGASVVKAKHPEFGKTKVSVMHSENIFGGLPSEITVWENHNDEIINLPDDFTLAASSATCQVQGFYHKTRPIYATQFHPEVEHTQYGRDIFRNFIGICASYREIQKENFQH	soluble
MSLDKHLLVKRTLGCVCAATLMGAALATHHDSLNTVKAEEKTVQVQKGLPSIDSLHYLSENSKKEFKEELSKAGQESQKVKEILAKAQQADKQAQELAKMKIPEKIPMKPLHGPLYGGYFRTWHDKTSDPTEKDKVNSMGELPKEVDLAFIFHDWTKDYSLFWKELATKHVPKLNKQGTRVIRTIPWRFLAGGDNSGIAEDTSKYPNTPEGNKALAKAIVDEYVYKYNLDGLDVDVEHDSIPKVDKKEDTAGVERSIQVFEEIGKLIGPKGVDKSRLFIMDSTYMADKNPLIERGAPYINLLLVQVYGSQGEKGGWEPVSNRPEKTMEERWQGYSKYIRPEQYMIGFSFYEENAQEGNLWYDINSRKDEDKANGINTDITGTRAERYARWQPKTGGVKGGIFSYAIDRDGVAHEGHHHHHH	soluble
MAEHRSMQRAALLDAARSLLSDGGTEALTFPALAERTGLARSSVYEYFRSRAAVVEELCAVDFPVWAAEVEAAMERETAPDAKVEAYVRTQLDLVGDRRHRAVVAISASELDAGAREKIRAAHGGLIAMIVEALGEMGHGQPRLAAMLLQGVVDAAVRRIELGAAEEPGAITEAAVSMALRGVRG	not soluble
MKFPGPLENQRLSFLLEKAITREAQMWKVNVRKMPSNQNVSPSQRDEVIQWLAKLKYQFNLYPETFALASSLLDRFLATVKAHPKYLSCIAISCFFLAAKTVEEDERIPVLKVLARDSFCGCSSSEILRMERIILDKLNWDLHTATPLDFLHIFHAIAVSTRPQLLFSLPKLSPSQHLAVLTKQLLHCMACNQLLQFRGSMLALAMVSLEMEKLIPDWLSLTIELLQKAQMDSSQLIHCRELVAHHLSTLQSSLPLNSVYVYRPLKHTLVTCDKGVFRLHPSSVPGPDFSKDNSKPEVPVRGTAAFYHHLPAASGCKQTSTKRKVEEMEVDDFYDGIKRLYNEDNVSENVGSVCGTDLSRQEGHASPCPPLQPVSVM	not soluble
MSEIINNREYRQKVLKELIRELHDGKSVEEIKPRFEELIKGISPAEISEMEQALIMEGMPVEEIQRLCDVHAAVFKGSIEEIHRPQKPEEVPGHPIHTFKLENAEIRKLVDNEIRPQLELYKNGDTAESLKKLREAFQKLWEIDKHYSRKENLLFPYLEKYGITAPPKVMWGVDDEIRADIKEINNKLSANAQNQNIPLEKAEEAVNRVIEMIFKEENILFPMALETLTEDEWAEIARASDEIGYCMITPEAEWKPARVDVVEKTQKEGVKSQENQGFVEFDAGCLTTEEINAMLNTLPIDITFVDKNDTVKYFTQGKERIFARPKTIIGRKVQNCHPPASVHIVEKIIEDLKSGKKDHEDFWIKMGEKYVYIRYFAVRNEKGEYLGTIEVTQDIAPIQKITGEKRLLSDA	soluble
GPGSMPSITTAKREYEERLVDCLTKYSCVLFVGMDNVRSQQVHDVRRALRGKAEFMMGKKTLQAKIVEKRAQAKDASAEAKHFNDQCEEYNLLSGNTGLIFTNNAVQEITSVLDAHRVKAPARVGAISPCDVIVPAGSTGMEPTQTSFFQALNIATKIAKGMVEIVTEKKVLSVGDKVDNSTATLLQKLNISPFYYQVNVLSVWDRGVLFTREDLMMTEDMVEKMLMDGLS	not soluble
MSLRHVIREVRADLIASPVQTGFQDATRKVETVGMCVIRVNTDQGLTGIGVTYHEVGGEAIKEMIERYYGPKLIGRDPFETEEIWEELFHYARGVGRKGLSFCALSAVDIALWDLKGKIMDLPLYRLLGGNKKKVPVYASGGWTSYDDDALVAEALEMVRRGYKMIKLKVGVEGGRNIRRDTQRCRKVREAIGPDIGFMVDANNAFHSGDAVRLANEIREYDILFFEEPVFADDIPGLRRFRQGTDIPLGTGEHEYTRYGARDLILGEAVDYLQMDVTRCGGITEMLKVIALSQAWNLAFAPHAMEHIHMHLVSAAANGAFLERLFLFEDITAMVFKDAPVPEEGILTIPDKPGLGLELNSEFLREGHHHHHH	soluble
MGRIAVIGAGVAALAAARSLVLAGRRPLLIAPDREVISRGETLSPAAAALLDRLQWADLLDADSALPSEGRFSVWGDATLRQAAQGVGAWHLDRARFERQMRAKLDNDAIECHPIIVTMLVHHCDGVVLELGDGRVVFADAAIDCSGRAAVSSGAAAGRRRTDRLVAVWRVLDLPDDTEPAAATLIEAVPLGWWYMAPLPGDRMMLGLFTDTDLVPPGAAQDGATWTGLAASTVAIAPRLRSLGLDVSAAREPPQVAPAATVTASRLIEGRILRAGDAAAALDPLGANGLATALWSGMAAAEAALTLTEGEPERADAYERDYLQGIAQHLVSQQAMYAAEPRFADAPFWQRRRAVVSSHPQKETLPLEHHHHHH	not soluble
MRFPELEELKNRRTLKWTRFPEDVLPLWVAESDFGTCPQLKEAMADAVEREVFGYPPDATGLNDALTGFYERRYGFGPNPESVFAIPDVVRGLKLAIEHFTKPGSAIIVPLPAYPPFIELPKVTGRQAIYIDAHEYDLKEIEKAFADGAGSLLFCNPHNPLGTVFSEEYIRELTDIAAKYDARIIVDEIHAPLVYEGTHVVAAGVSENAANTCITITATSKAWNTAGLKCAQIFFSNEADVKAWKNLSDITRDGVSILGLIAAETVYNEGEEFLDESIQILKDNRDFAAAELEKLGVKVYAPDSTYLMWLDFAGTKIEEAPSKILREEGKVMLNDGAAFGGFTTCARLNFACSRETLEEGLRRIASVL	not soluble
MKIIGKIGKGKVEVNEKTKFSILLNNVAKKADIAEGKRAVEDIIRVIYRHQPISTKKIAQKTRLPLPIVAKVRTILEREKILKRTERGAELTDLGKEFAENFLKLKYKKSLTCKTCNGRGIVLDEFFEDILNKVRVWAKRRPLVDTTIDQSFATPETSTYRAALMYERGDLEGKRILFVGDDDLTSLPTALTNMAEEIAVVDIDERILKLIEKFSQKEGVKIKTIKHDLRNPLPQDLKERFDVISTDPPYTVDGLKLFLSRGIEALGKEGIAYLSYSHKPIDEWLSIQKAITNMGFVISELIPNFNYYEGSEIIANTTFIARLVGKNLKINIGDTEKIYTGLVKPVIRYYKCLKCGKIHKVGEEVKKVEDLVCECGGKKFKMIKREKLKNELEHHHHHH	soluble
MSLADIFDFPRDARNVARADGKEADMGGEAPQTMLMRPQGVPDQVWNAVLSVDRMRRLKGMTYREIPVPNSMANFGIGVALECDETYASGWIMILYSLKFREDWHSHWRCVAFASLPLPDKEDDCLTPGMYWDMMMERLNPNDSEHVSGTVTVTQNTAFGHDPDVPRVGCEIRVSWTPLDYADGGLDAGSQVGQWASFLRSMTQSEEEGHHHHHH	soluble
MGSDKIHHHHHHAKIRAKNADSYPFMYKNYPFLRPWVDSLNQAHALRDTFVLNPEGIRLHAYYIAAPQPTKKTAVIVHGYTDNAIRMFMIGYLYNHDLQYNVLLPDLQHQGESGGPAIQMGWKDRLDVMQWMHIANQIYGDSTQMVVHGISMGGATTMMVSGEAQPYFVKCFVEDCGYTSVWDEFSHELKSSFHLPSFPLMNTTSWLCQKKYGWNFEEASSLNQVKKSHLPMFFIHGDKDTYVPTWMVYPLYEAKSAPKQLWIVPGAAHAVSYKENKEEYTRKVKEFTDRYIH	not soluble
MGSDKIHHHHHHMKAVYPGSFDPITLGHVDIIKRALSIFDELVVLVTENPRKKCMFTLEERKKLIEEVLSDLDGVKVDVHHGLLVDYLKKHGIKVLVRGLRAVTDYEYELQMALANKKLYSDLETVFLIASEKFSFISSSLVKEVALYGGDVTEWVPPEVARALNEKLKEGKR	soluble
NMAGMNDKASMNDKASMTVKINESLPQGNGKALGTVTVTETAYGLLFTPHLTGLAPGIHGFHLHEKPSCAPGMKDGKAVPALAAGGHLDPNKTGVHLGPYNDKGHLGDLPGLVVNADGTATYPVLAPRLKSLSEVKQHALMIHAGGDNYSDHPMPLGGGGARMACGVIE	soluble
MKKLLAGVLVSAIAFAKPVFMDAEWAKQFCEVWNNTPELVEKLGKSESWTEVPERKLFLYRKDCGPEKQIQLTIKNENGRAVCVYGGWKKDEKTDNDFLMYADTKRWLEMGRKEYGPMKAMLFGRLKFEGPRFVAMKNMGPFEAFLDKIDEVEADTSRCP	not soluble
MMNEYRFHLEKYRLGNRYTCPNCERKRCFTRYIDDEGEVSFPDNVGKCDHEHSCGYHYTPKDYFREHPDFLSKDKLPYPTRGNTQPKVVEKPISYIANAIMERSLSHYGINPLYQYLSKVFGEQETERLMKMYHVGTSYKWGGSTIYWQVDKDDKVRTGKVMLYNPKDGHRVKEPRSYVGWAHAFLHLPDFNLCQCFFGEHLLAQHPTMSVAIVESEKTAIIASHFIPNFIWLATGGMHGCLNQIAVKVLGGRDIILFPDLGATDKWKSKIPLLQSVCKRVVISNILEDNATDEQKTKGLDIADFLLMAETPQMALQRLIKQHPPLKHLIDCLGLVLVEES	not soluble
